According to paper PMC4775432 (2015):

Molecular target: T1, KRAS G12D peptide on HLA-A*11:01 (human)
T1 peptide: VVGADGVGK
Experiment: cytokine release

- binding result: no recognition
B1: TRAV4-4*01/BV12-2*01 (TCR)
alpha TRAV4-4/DV10*01 49*01 CDR3: CAADSSNTGYQNFYF
beta TRBV12-2*01 1-2*01 CDR3: CASSLTDPLDSDYTF
